The text below walks through data of US20230087600A1.

Assay [1] has as its target human IL-10 receptor (IL-10R) on T cells and B cells of human whole blood (human) (UniProt Q13651). Kind of assay: cell-based or functional assay.
For assay [2], the target named is T1, mouse IL-10 receptor (IL-10R) on T cells and B cells of C57BL/6 mouse splenocytes (mouse) (UniProt Q61727).
T1 sequence (looked up) 1: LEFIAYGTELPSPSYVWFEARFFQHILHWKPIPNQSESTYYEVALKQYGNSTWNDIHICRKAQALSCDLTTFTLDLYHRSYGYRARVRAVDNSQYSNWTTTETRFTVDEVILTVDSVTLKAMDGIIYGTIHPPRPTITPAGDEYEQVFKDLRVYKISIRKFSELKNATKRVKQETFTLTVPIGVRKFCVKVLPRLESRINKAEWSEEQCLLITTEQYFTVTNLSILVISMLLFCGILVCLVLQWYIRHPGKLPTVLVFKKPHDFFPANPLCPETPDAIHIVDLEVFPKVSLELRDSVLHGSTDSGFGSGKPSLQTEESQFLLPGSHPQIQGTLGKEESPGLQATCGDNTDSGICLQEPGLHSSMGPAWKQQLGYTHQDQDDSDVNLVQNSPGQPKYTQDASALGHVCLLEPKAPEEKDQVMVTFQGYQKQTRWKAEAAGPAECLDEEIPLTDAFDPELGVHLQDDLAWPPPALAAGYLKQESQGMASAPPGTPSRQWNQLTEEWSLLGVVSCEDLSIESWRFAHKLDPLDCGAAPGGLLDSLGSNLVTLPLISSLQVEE
T1 sequence (looked up) 2: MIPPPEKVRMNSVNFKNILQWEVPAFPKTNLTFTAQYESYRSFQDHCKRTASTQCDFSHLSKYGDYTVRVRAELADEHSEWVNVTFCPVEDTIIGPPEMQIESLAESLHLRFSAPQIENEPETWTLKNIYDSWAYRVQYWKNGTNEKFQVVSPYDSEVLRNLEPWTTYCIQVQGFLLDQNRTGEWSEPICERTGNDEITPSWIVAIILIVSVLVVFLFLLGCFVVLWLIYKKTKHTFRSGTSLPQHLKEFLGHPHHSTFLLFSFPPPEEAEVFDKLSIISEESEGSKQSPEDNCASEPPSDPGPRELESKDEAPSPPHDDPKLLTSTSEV
Nature of the assay: cell-based or functional assay.

human IL-10 receptor (IL-10R) on T cells and B cells of human whole blood (human), sequence (Q13651 22-578, chain 1 of 2): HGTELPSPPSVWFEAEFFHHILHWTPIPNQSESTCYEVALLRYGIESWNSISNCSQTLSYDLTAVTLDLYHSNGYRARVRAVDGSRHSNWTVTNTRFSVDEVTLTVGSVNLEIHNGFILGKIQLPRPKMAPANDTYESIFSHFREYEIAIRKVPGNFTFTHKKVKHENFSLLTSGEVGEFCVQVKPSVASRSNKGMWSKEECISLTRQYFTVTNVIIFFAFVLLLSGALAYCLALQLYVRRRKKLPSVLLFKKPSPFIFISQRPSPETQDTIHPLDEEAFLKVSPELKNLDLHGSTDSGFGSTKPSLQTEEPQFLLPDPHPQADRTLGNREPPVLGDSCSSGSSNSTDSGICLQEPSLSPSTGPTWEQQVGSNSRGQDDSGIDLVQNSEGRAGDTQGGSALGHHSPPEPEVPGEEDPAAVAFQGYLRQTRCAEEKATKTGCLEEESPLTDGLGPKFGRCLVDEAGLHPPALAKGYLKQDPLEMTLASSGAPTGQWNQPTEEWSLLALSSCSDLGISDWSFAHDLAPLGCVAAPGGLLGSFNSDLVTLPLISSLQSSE
human IL-10 receptor (IL-10R) on T cells and B cells of human whole blood (human), sequence (Q08334 20-325, chain 2 of 2, further chain): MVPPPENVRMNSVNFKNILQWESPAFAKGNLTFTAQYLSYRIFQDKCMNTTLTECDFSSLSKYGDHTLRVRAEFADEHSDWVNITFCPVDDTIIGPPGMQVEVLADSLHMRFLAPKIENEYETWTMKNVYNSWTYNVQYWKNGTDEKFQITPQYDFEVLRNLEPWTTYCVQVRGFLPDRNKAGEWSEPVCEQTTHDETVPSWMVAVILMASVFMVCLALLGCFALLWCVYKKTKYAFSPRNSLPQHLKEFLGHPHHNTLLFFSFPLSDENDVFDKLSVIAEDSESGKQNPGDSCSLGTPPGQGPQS

Regarding “5KPEG-hIL-10 (human IL-10 conjugated to 5 KD PEG) (from UniProt P22301 19-178) (ligand)”, in assay [1], the STAT3 phosphorylation (pY705), flow cytometry, CD3+ T cells in human whole blood, EC50 is 167 pM and the STAT3 phosphorylation (pY705), flow cytometry, CD19+ B cells in human whole blood, EC50 is 347 pM.
Regarding “mIgG1-D265A-Fc-(G4S)4-mIL-10 (Fc fusion)”, in assay [2], the STAT3 phosphorylation (pY705), flow cytometry, B cells of C57BL/6 mouse splenocytes (CD19 + B cells), EC50 was 125 pM and the STAT3 phosphorylation (pY705), flow cytometry, CD3+ T cells of C57BL/6 mouse splenocytes, EC50 stood at 441 pM.
